According to publication PMC11055677 (Cell, 2024):

B2: SPATA5, full-length wild type, subunit of the reconstituted 55LCC complex (enzyme, human, UniProt Q8NB90 1-893, looked up)
chain: MSSKKNRKRLNQSAENGSSLPSAASSCAEARAPSAGSDFAATSGTLTVTNLLEKVDDKIPKTFQNSLIHLGLNTMKSANICIGRPVLLTSLNGKQEVYTAWPMAGFPGGKVGLSEMAQKNVGVRPGDAIQVQPLVGAVLQAEEMDVALSDKDMEINEEELTGCILRKLDGKIVLPGNFLYCTFYGRPYKLQVLRVKGADGMILGGPQSDSDTDAQRMAFEQSSMETSSLELSLQLSQLDLEDTQIPTSRSTPYKPIDDRITNKASDVLLDVTQSPGDGSGLMLEEVTGLKCNFESAREGNEQLTEEERLLKFSIGAKCNTDTFYFISSTTRVNFTEIDKNSKEQDNQFKVTYDMIGGLSSQLKAIREIIELPLKQPELFKSYGIPAPRGVLLYGPPGTGKTMIARAVANEVGAYVSVINGPEIISKFYGETEAKLRQIFAEATLRHPSIIFIDELDALCPKREGAQNEVEKRVVASLLTLMDGIGSEVSEGQVLVLGATNRPHALDAALRRPGRFDKEIEIGVPNAQDRLDILQKLLRRVPHLLTEAELLQLANSAHGYVGADLKVLCNEAGLCALRRILKKQPNLPDVKVAGLVKITLKDFLQAMNDIRPSAMREIAIDVPNVSWSDIGGLESIKLKLEQAVEWPLKHPESFIRMGIQPPKGVLLYGPPGCSKTMIAKALANESGLNFLAIKGPELMNKYVGESERAVRETFRKARAVAPSIIFFDELDALAVERGSSLGAGNVADRVLAQLLTEMDGIEQLKDVTILAATNRPDRIDKALMRPGRIDRIIYVPLPDAATRREIFKLQFHSMPVSNEVDLDELILQTDAYSGAEIVAVCREAALLALEEDIQANLIMKRHFTQALSTVTPRIPESLRRFYEDYQEKSGLHTL
B3: CINP, full-length wild type, subunit of the reconstituted 55LCC complex (natural protein, human, UniProt Q9BW66 1-212, looked up)
chain: MEAKTLGTVTPRKPVLSVSARKIKDNAADWHNLILKWETLNDAGFTTANNIANLKISLLNKDKIELDSSSPASKENEEKVCLEYNEELEKLCEELQATLDGLTKIQVKMEKLSSTTKGICELENYHYGEESKRPPLFHTWPTTHFYEVSHKLLEMYRKELLLKRTVAKELAHTGDPDLTLSYLSMWLHQPYVESDSRLHLESMLLETGHRAL

Key:
[1] = target: B3; assay: cryo-EM structure; reconstituted 55LCC incubated with 5 mM ATPγS, 0.01% fluorinated octyl maltoside; AlphaFold 2 models rigid-body fitted into the composite map; details: both partners purified
[2] = target: the molecule itself; assay: as above
[3] = target: B2; assay: mass photometry; reconstituted 55LCC, 120 nM final, 25 mM Tris pH 7.5, 400 mM NaCl, with 2 mM ADP or after addition of 5 mM ATPγS (more of the 55LCC peak with ATPγS); details: both partners purified
[4] = target: T1, C1orf109, untagged, of the purified C1orf109-CINP sub-complex (human, UniProt Q9NX04 1-203); assay: native MS; untagged proteins in 500 mM ammonium acetate; 12 μM C1orf109, 20 μM CINP, 20 μM C1orf109-CINP complex; details: both partners purified
T1 sequence (looked up): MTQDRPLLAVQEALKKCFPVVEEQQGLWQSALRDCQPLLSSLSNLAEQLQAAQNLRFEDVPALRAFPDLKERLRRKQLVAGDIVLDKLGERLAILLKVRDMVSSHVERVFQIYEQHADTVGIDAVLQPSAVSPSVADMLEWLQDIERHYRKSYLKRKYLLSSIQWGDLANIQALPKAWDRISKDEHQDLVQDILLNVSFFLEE

B1: C1orf109, full-length wild type, subunit of the reconstituted 55LCC complex (natural protein, human, UniProt Q9NX04 1-203, looked up)
chain: MTQDRPLLAVQEALKKCFPVVEEQQGLWQSALRDCQPLLSSLSNLAEQLQAAQNLRFEDVPALRAFPDLKERLRRKQLVAGDIVLDKLGERLAILLKVRDMVSSHVERVFQIYEQHADTVGIDAVLQPSAVSPSVADMLEWLQDIERHYRKSYLKRKYLLSSIQWGDLANIQALPKAWDRISKDEHQDLVQDILLNVSFFLEE
binding result [1]: binds

B2
binding result [2]: binds

B3
binding result [3]: binds

B4: CINP, untagged, of the purified C1orf109-CINP sub-complex (natural protein, human, UniProt Q9BW66 1-212, looked up)
chain: MEAKTLGTVTPRKPVLSVSARKIKDNAADWHNLILKWETLNDAGFTTANNIANLKISLLNKDKIELDSSSPASKENEEKVCLEYNEELEKLCEELQATLDGLTKIQVKMEKLSSTTKGICELENYHYGEESKRPPLFHTWPTTHFYEVSHKLLEMYRKELLLKRTVAKELAHTGDPDLTLSYLSMWLHQPYVESDSRLHLESMLLETGHRAL
stoichiometry N [4]: 1
